“Also recorded” adds a separate entry of the source.
Assays:
[1] = molecular target: T1, insulin-insulin interaction (Homo sapiens, UniProt P01308); experiment: SPR: effect of substances mixed with insulin in solution on insulin-insulin interaction; assay type: binding; conditions: for effect on insulin-insulin interaction when injected along with insulin: 1:5 molar ratio
T1 construct: 28; purchased Novo Nordisk A/S, Denmark Actrapid
Method: BiacorA Biacore 3000 instrument was employed for the interaction measurements based on surface plasmon resonance (SPR). Interaction analyses were performed at 25° C. in 10 mM Na-citrate buffers pH 3, 4, 5, 10 mM bis-Tris, pH 6, and 10 mM Tris/HC1, pH 7, all buffers containing 100 mM NaCl and 0.005% 5P20. Flow rates for the binding analyses were kept at 20 μl/min. […] Insulin was immobilized on a carboxymethyl-modified dextran surface via both amine and carboxyl coupling, using the surface thiol method, in two different lanes of Biacore CM5 chips. The immobilization was carried out according to the procedure described in the kits. In brief, the sensor chip surface was first washed with 4 M LiCl/HBS for 1 min and then with 0.2% SP20/HBS for 1 mM. The surface was activated according to standard procedure with an injection of 0.05 M NHS/0.2 M EDC for 7 min. Desalted insulin solution was diluted in acetate buffer, pH 4.5, to 20 μg/ml and injected at 50/min for different time intervals. For surface thiol coupling, the surface was first activated with 0.05 M NHS/0.2 M EDC for 2 min followed by a 3 min injection of 40 mM cystamine dihydrochloride and then 0.1 M DTE for 3 min. […] The mixture was incubated for 10 mM at room temperature and excess PDEA was removed on a NAP-10 column. The purified PDEA ligand was injected for 7 min, soon after DTE, and finally the surface was washed with 20 mM PDEA in 0.1 M sodium acetate, 1.0 M NaCl. For quick regeneration of the surface, 2 M guanidine-HC1, pH 6.4, was employed. For controls, lanes activated and deactivated according to the standard procedures were used. For subtraction of noise from the data, running buffer only was injected to all surfaces. For the C-terminal attachment, surface-thiol coupling to 4000-5000 RU was used, and for N-terminal attachment, amine coupling to 800-1000 RU as achieved on different CM5 chips. However for kinetic analysis immobilization was carried out in a controlled condition and around 1000 RU for C-terminal and 400 RU for N-terminal coupling were immobilized. A surface activated with EDC/NHS and deactivated with ethanolamine was used as a control surface for N-terminally immobilized insulin and a surface treated with EDC/NHS, cysteine/DTE and finally deactivated with PDEA-NaCl was used as a control for C-terminally immobilized insulin. Biacore data were analyzed with Bia-evaluation software 4.1. All calculations based on numerical approaches, including simulations and global curve fitting for estimates of active concentrations, were performed with IGOR Pro (version 4.01.A, WaveMetrics, Inc.). However, C-peptide, mixed with insulin in solution, influences the insulin-insulin monomer interactions measured above. […] This elevated interaction can be seen at different pH from 3-7. The phenomenon of more pronounced interaction was clearer when concentrations higher than 0.5 μM were used then below 0.5 μM. […] All concentrations were run in triplicates and in random order.

[2] = molecular target: T2, insulin immobilized on the surface of CM5 chip (Homo sapiens, UniProt P01308); experiment: SPR: direct binding of C-peptide and variants to insulin immobilized on CM5 chip; conditions: pM-μM, pH 3-7
T2 construct: 28; purchased Novo Nordisk A/S, Denmark Actrapid
Method: BiacorA Biacore 3000 instrument was employed for the interaction measurements based on surface plasmon resonance (SPR). Interaction analyses were performed at 25° C. in 10 mM Na-citrate buffers pH 3, 4, 5, 10 mM bis-Tris, pH 6, and 10 mM Tris/HC1, pH 7, all buffers containing 100 mM NaCl and 0.005% 5P20. Flow rates for the binding analyses were kept at 20 μl/min. […] Insulin was immobilized on a carboxymethyl-modified dextran surface via both amine and carboxyl coupling, using the surface thiol method, in two different lanes of Biacore CM5 chips. The immobilization was carried out according to the procedure described in the kits. In brief, the sensor chip surface was first washed with 4 M LiCl/HBS for 1 min and then with 0.2% SP20/HBS for 1 mM. The surface was activated according to standard procedure with an injection of 0.05 M NHS/0.2 M EDC for 7 min. Desalted insulin solution was diluted in acetate buffer, pH 4.5, to 20 μg/ml and injected at 50/min for different time intervals. For surface thiol coupling, the surface was first activated with 0.05 M NHS/0.2 M EDC for 2 min followed by a 3 min injection of 40 mM cystamine dihydrochloride and then 0.1 M DTE for 3 min. […] The mixture was incubated for 10 mM at room temperature and excess PDEA was removed on a NAP-10 column. The purified PDEA ligand was injected for 7 min, soon after DTE, and finally the surface was washed with 20 mM PDEA in 0.1 M sodium acetate, 1.0 M NaCl. For quick regeneration of the surface, 2 M guanidine-HC1, pH 6.4, was employed. For controls, lanes activated and deactivated according to the standard procedures were used. For subtraction of noise from the data, running buffer only was injected to all surfaces. […] Similar results where obtained when insulin was injected on C-peptide immobilized on the surface of a streptavidin (SA) chip. Both peptides were injected in concentration ranging from pM-μM at different pH from 3-7. […] This conclusion is compatible with the fact that C-peptide and insulin are joined in proinsulin by covalent bonds rather than binding attachments, and with little ordered structure in the C-peptide part. […] This appears relevant since C-peptide is very negative (−6 charges) with much repulsive forces.

[3] = molecular target: T3, chip-bound C-peptide (Homo sapiens, UniProt P01308); experiment: SPR: binding of C-peptide in solution to chip-bound C-peptide
T3 sequence (P01308 57-87 limits assumed): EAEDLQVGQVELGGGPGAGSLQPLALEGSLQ
Method: Similar results where obtained when insulin was injected on C-peptide immobilized on the surface of a streptavidin (SA) chip. Both peptides were injected in concentration ranging from pM-μM at different pH from 3-7. […] This conclusion is compatible with the fact that C-peptide and insulin are joined in proinsulin by covalent bonds rather than binding attachments, and with little ordered structure in the C-peptide part. […] This appears relevant since C-peptide is very negative (−6 charges) with much repulsive forces.

[4] = molecular target: T4, insulin (Homo sapiens, UniProt P01308); experiment: Non-denaturing nano-electrospray mass spectrometry of insulin, C-peptide and control peptides; assay type: binding
T4 construct: 28; purchased Novo Nordisk A/S, Denmark Actrapid
Method: For mass spectrometric analysis, preparation of concentrated insulin stock solution was performed essentially as described [Nettleton et al, 2000, Biophys J. 79:1053]. Briefly, insulin (NovoNordisk A/S, Denmark) was concentrated to 100 μM using ultrafiltration spin-filters (NanoSep, PallGellman, MWCO: 3000 Da). This stock solution was then buffer-exchanged to water, pH 5 (HCl), by extended dialysis. For all experiments, insulin and C-peptide stock solutions were diluted in water-HC1 (pH 5) to reach the indicated concentrations. C-peptide was prepared as a 746 μM stock solution in water and all control peptides were prepared similarly.
Mass spectrometry data were recorded with a QTOF Ultima API instrument (Waters, Milford, Mass.) operated in the positive ion mode. Sample solutions were analyzed by nanoelectrospray from conductive borosilicate glass capillaries (Proxeon Biosystems A/S, Odense, Denmark). Instrument settings were not modified for the observation of non-covalent complexes, other than that the “cone” and the “RF-lens” settings were set to 90 and 50 V, respectively.
The binding between insulin and C-peptide in the gas-phase was studied by non-denaturing electrospray mass spectrometry using a method analogous to that of Nettleton et al [Nettleton et al, 2000, Biophys J. 79:1053].

T4 sequence (P01308 25-54 limits assumed): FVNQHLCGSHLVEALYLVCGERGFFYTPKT
T4 sequence (P01308 90-110 limits assumed): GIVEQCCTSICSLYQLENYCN
T1 sequence (P01308 25-54 limits assumed): as the sequence (P01308 25-54 limits assumed) above
T2 sequence (P01308 25-54 limits assumed): as above

| Substance | effect on insulin-insulin interaction when injected along with insulin [1] | interaction with immobilized insulin (peptide alone in solution) [2] | stimulation of SPR-measurable binding in mixture with insulin in the flow-through solution ([1]; Example 10) | effect on insulin-insulin interaction (SPR binding signal) when mixed with insulin ([1]; insulin:peptide 1:1 and 1:5, pH 3-7) | effect of C-peptide on insulin-insulin interaction at pH 4 or 7 ([1]; pH 4 or 7, 10 μM insulin, 50 μM C-peptide) | effect of C-peptide on insulin-insulin interaction at pH 5-6 ([1]; pH 5-6, 10 μM insulin, 50 μM C-peptide) | interaction with immobilized insulin (peptide alone in solution) ([2]; listed as Proinsulin C-peptide) | binding of C-peptide in solution to chip-bound C-peptide [3] | self-aggregation of the peptide in the gas-phase [4] | interaction with insulin in nanoESI-MS at 0.3 μM ([4]; 0.3 μM level, 1:1 ratio) | interaction (heterodimer) with insulin in nanoESI-MS ([4]; 3 μM, 1:1 ratio, pH 5) | hexameric insulin charge states in the presence of the peptide ([4]; 30 μM insulin, 30 μM peptide, pH 5) | concentration at which a dimer of the peptide was detected ([4]; gas-phase) |
| --- | --- | --- | --- | --- | --- | --- | --- | --- | --- | --- | --- | --- | --- |
| Glu11-Ala: C-peptide analogue in which Glu 11 has been substituted with Ala (EAEDLQVGQVALGGGPGAGSLQPLALEGSLQ) | failed to show any significant increase | showed no interaction with insulin |  |  |  |  |  |  |  |  |  |  |  |
| Glu27-Ala: C-peptide analogue in which Glu 27 has been substituted with Ala (EAEDLQVGQVELGGGPGAGSLQPLALAGSLQ) | failed to show any significant increase | showed no interaction with insulin | did also not stimulate the SPR signal |  |  |  |  |  |  |  |  |  |  |
| Proinsulin C-peptide (EAEDLQVGQVELGGGPGAGSLQPLALEGSLQ) |  | not to give any observable binding |  | higher interaction with immobilized insulin; also recorded: increases the observable SPR binding signal | little effect | Enhanced insulin interaction | showed no interaction with insulin | no evidence for such binding | showed an aggregation tendency | not possible to detect | clearly shows the interaction | no hexameric insulin was detectable; also recorded: absence of insulin hexamers | 3 µM |
